Test results as given in the DeepSol protein solubility set.

Assay: soluble on expression in E. coli; label from the status in PepcDB or PDB records

Row | Sequence | soluble on expression in E. coli
1 | GAFGWEQDRGAPFSGRSPRILTRMTDAPRPTAGADAPARPPAAPLVAPNFITEIIERDLEAGKYPRVVTRFPPDPSGYAHLGHVFASLLDFNTARQYGGQFNLRMDDTNPELARQEYVDSIADDLKWLGLDWGEHFYYASDYFDRYYAYAEQLIRQGDAYVESVSPEELSRLRGNATTPGTPSPYRDRSVEENLDLLRRMKAGEFADGEHVLRAKIDLTAPNMKLRDPVLYRIVNKPHFRTSDEWHIYPAYDFEHPLQDAIEGVTHSMCSLEFVDNRAIYDWLMEKLNFDPRPHQYEFGRRGLEYTITSKRKLRELVQAGRVSGWDDPRMPTLRAQRRLGVTPEAVRAFAAQIGVSRTNRTVDIAVYENAVRDDLNHRAPRVMAVLDPVKVTLTNLDGEKTLSLPYWPHDVVRDSPDGLVGMPGGGRVAPEEAVRDVPLTRELYIERDDFSPAPPKGFKRLTPGGTVRLRGAGIIRADDFGTDEAGQVTHIRATLLGEDAKAAGVIHWVSAERALPAEFRLYDRLFRVPHPEGENADVEDDSAGPAEHEAEPGAGQETAPVSQGFMRYLTPDSLRVLRGYVEPSVAGDPADTRYQFERQGYFWRDPVELERVDSREDALVFGRIITLKDTWGKQGGGTQQKAEGKKRPSTKGRGPDEVRGEGSSSPAKAHAPKAQPLTPEQDAEFTRLLGLGASEGDARTIARDPALLAFVGGAAPGDTFAQVASWTVNELVAGLRAGEVKVRAADLAPLAEGVASGQLSARIAREALARAAASGDAPLTIIEREGLNAGLSAEALQQVVAQVIAANPDKAEAYRGGKTALLGFFTGQVMRATAGKADPQALAAALKDALA | soluble
2 | GAKESEQKVTIDSAKHEKHTKDKEENNSANTVFFDKINDLLVASVKEFEGTVGISYLDLETGEQRSVNGQHEFYTASTIKVPLTMLVADTVASGQKKWTDLIPYNAEEDYEEGTGIIAYNIQPEYPLKTLQEYAITYSDNIAKNMLYDTLGGDAKAKREMYQRYLHKTPSIEEPQFSSEDALVILQKLYTEKATKPDYQAIYDSMKQSVFHERMETPTTQGKVAHKIGSYDEFIHDMGILETPHPFALAIFTKGPDNAKSAAFIASVTDKLWQLQVSEYPNQ | soluble
3 | GAMDAEGLALLLPPVTLAALVDSWLREDCPGLNYAALVSGAGPSQAALWAKSPGVLAGQPFFDAIFTQLNCQVSWFLPEGSKLVPVARVAEVRGPAHCLLLGERVALNTLARCSGIASAAAAAVEAARGAGWTGHVAGTRKTTPGFRLVEKYGLLVGGAASHRYDLGGLVMVKDNHVVAAGGVEKAVRAARQAADFALKVEVECSSLQEAVQAAEAGADLVLLDNFKPEELHPTATVLKAQFPSVAVEASGGITLDNLPQFCGPHIDVISMGMLTQAAPALDFSLKLFAKEVAPVPKIH | soluble
4 | GAMEKFKTLLYDIPIECMEVSEEIISYAKLQLGKKLNDSIYVSLTDHINFAIQRNQKGLDIKNALLWETKRLYKDEFAIGKEALVMVKNKTGVSLPEDEAGFIALHIVNAELNEEMPNIINITKVMEEILSIVKYHFKIEFNEESLHYYRFVTDLKFFAQRLFNGTHMESEDDFLLDTVKEKYHRAYECTKKIQTYIEREYEHKLTSDELLYLTIDIERVVKQA | soluble
5 | GAMGMDEGDGEGNILPIMQSIMQNLLSKDVLYPSLKEITEKYPEWLQSHRESLPPEQFEKYQEQHSVMCKICEQFEAETPTDSETTQKARFEMVLDLMQQLQDLGHPPKELAGEMPPGLNFDLDAL | soluble
6 | GAMGSEEKLREVSSQDPVTGLYNRSHFLDLMDAAVQQAVTARKPSTLAYIHLNGYPSLQADHGLSGIDLLLGQLAGLMREQFGEEADLARFGDSIFAALFKGKTPEQAQAALQRLLKKVENHLFELNGRSAQATLSIGVAGLDEKTAKAQDVMNRAHRCADDAARKGGSQIKQYNPAEELAAAAQRGDVIAILQQALETNSFRLLFQPVISLRGDSHENYEVLLRLLNPQGQEVPPAEFLHAAKEAGLAEKIDRWVILNSIKLLAEHRAKGHQTKLFVHLSSASLQDPGLLPWLGVALKAARLPPESLVFQISEADATSYLKQAKQLTQGLATLHCQAAISQFGCSLNPFNALKHLTVQFIKIDGSFVQDLNQVENQEILKGLIAELHEQQKLSIVPFVESASVLATLWQAGATYIQGYYLQGPSQAMDYDFSSGDE | soluble
7 | GAMGSMATRIAILGAGPSGMAQLRAFQSAQEKGAEIPELVCFEKQADWGGQWNYTWRTGLDENGEPVHSSMYRYLWSNGPKECLEFADYTFDEHFGKPIASYPPREVLWDYIKGRVEKAGVRKYIRFNTAVRHVEFNEDSQTFTVTVQDHTTDTIYSAAFDYVVCCTGHFSTPYVPEFEGFEKFGGRILHAHDFRDALEFKDKTVLLVGSSYSAEDIGSQCYKYGAKKLISCYRTAPMGYKWPENWDERPNLVRVDTENAYFADGSSEKVDAIILCTGYIHHFPFLNDDLRLVTNNRLWPLNLYKGVVWEDNPKFFYIGMQDQWYSFNMFDAQAWYARDVIMGRLPLPSKEEMKADSMAWREKELTLVTAEEMYTYQGDYIQNLIDMTDYPSFDIPATNKTFLEWKHHKKENIMTFRDHSYRSLMTGTMAPKHHTPWIDALDDSLEAYLSDKSEIPVAKEA | soluble
8 | GAMGSYDWLPRLSKENFNAAPVTCFPHAPGCEVWDNLGVGMKVEVENTDCDSIEVIQPGQTPTSFWVATILEIKGYKALMSYEGFDTDSHDFWVNLCNAEVHSVGWCATRGKPLIPPRTIEHKYKDWKDFLVGRLSGARTLPSNFYNKINDSLQSRFRLGLNLECVDKDRISQVRLATVTKIVGDRLFLRYFDSDDGFWCHEDSPIIHPVGWATTVGHNLAAPQDYLERMLAGREAMIEVHEDDATIELFKMNFTFDEYYSDGKTNSFVEGMKLEAVDPLNLSSICPATVMAVLKFGYMMIRIDSYQPDASGSDWFCYHEKSPCIFPAGFCSVNNISVTPPNGYDSRTFTWEGYLSDTGAVAAGQHLFHDIIPDHGFEVGMSLECADLMDPRLVCVATVARVVGRLLKVHFDGWTDEYDQWLDCESADIYPVGWCVLVNHKLEGPPR | soluble
9 | GASIHDPISAGRYFAQRLRANPNEVFAVLFLDNRHRAISFEELFHGTINGAEVHPREVVRRALTLNAAAVIVGHNHPSGNREPSPADQMITQRLKNALDLIDVRLVDHFVIGDGAPVSFAEHGWL | not soluble
10 | GEINGVSGIFPASSVEVIKQLPQPPPLCRALYNFDLRDKDKSENQDCLTFLKDDVITVISRVDENWAEGKLGDKVGIFPILFVEPNVSARHLLQNKGHQLSRTRHLSLMSSPSRGKATNTSSLRKSPGSRRKGSGQFSMTTALNTLNRTVHSPEGHQMVEISTPMLISSNSPSVLTQHGDKADFPTSSTGQVSSSQPAPASPGHSTAMVSVPSSQQHLSNNMFVALHTYSAHRPEELDLQKGEGIRVLGKYQDGWLKGLSLLTGRTGIFPSDYVIPVFSSTARKTSSFPDSRSPTVCTTWALSTSSVSSQGSFAEGDPRQSGPFKSVFVPTAVVNPSRSTPGPGSSGQGSLRKVRSSMRKNGSLQRPVQSGIPTFMVGSLRCSPTMVIRPQRFQFYPPQGMTPSPTPIMVEMGSKSIYTGEPALTCINRGSKTRIHSAGNSIIMEGKETPIKSEPPPKPPASAPPSILVKPENSKNGTEKQVKTVRFQNYSPPPTKHSASSPTSGKHDHPATLKGSQHEAVSSGGEMTILFAHRSGCHSGQQTDLRRKSAFGKTMPLLSTASATQTLFPSK | soluble
11 | GEQPSIQLTFADQNNSEMSVVHLNQLLKTNHISADKIIEKDGKTTIVFDGEDAQSKARALLNKELNKDDSITFSYVSVAPEWLNEMGFSPIKLGLDLRGGVQFLLNVDVNKAFEEQRDALIDEINASRDQRVRGVQVRAESGNRITVNSDSEQALSEVNKFLRQNYPGWISKSSSRGFVLEPSEQNIQEFQSSTLQQNLKIMRGRIEELGITEALVQRQGKESIRIELPGVQDPAQAKNVIGATASLAFYEVKDASQAHSSQDLVLQDNDGRTVILAKRPVLTGEHIVNARAGVDKMGMSEVNISLDHAGGKKMSDFSATHIGKPMATVYREYKTNDRGVTERSERVISVATIQSQLGSQFRITGAGSMDDAQQLALLLRAGSLTAPVTIVEERTIGASLGAENIEN | not soluble
12 | GESSKSGYQTTGENNSSDYQGIIEDGEYKTSKSRGVGISQNSDNLLNLKSFEAGLTTISKDHFSTKSYIFQEGQYLNKATIQDWLGRKSSSNPEGLNPSDNGKKEANKRNPIYVQQIEEQDYMKQNNGKLELAGMTIGIGMNQKDYYQKEQYGATYSTTISKEKRIEEGKIAAKKVLARVRQKVGNNVPIVIAMFAQAPNDSLVGGYFYSYTVSKSGTDIGSWTETNIKSYVLPATEDNKLPNDNDSTSFDNFQKEVKNFFPNISNVTGQGQYKDKTLQGLHITITTQFYSETEITSFTQYVAQAAKSYLPSGIPVDIKINGSDGETQSFVSTTGGNGGYYTHVFGSY | soluble
13 | GFNYSITGNIATFKNKITELPDNVRSVYGGNGMLDDIIGRPRNSIYGYVADGIFKTQEEVDNSPQQAGKGLGRIRYKDLDGDGRITQDYDRTWIGVSDPDFTYGLNLQASYKNVDLALFFQGVHGGDVWDSWIEYSDFWNIQDVNNTNHLKGVFNAWSPQNPDSNIPALSTRNTNDEKRTSTYFLKDGSYLKLRTIELGYTFPESMVKKAMISRLRAYVSANNVFTIKKWWDSNRFSGPDPEIRDFGYVIPFTATVGVNITF | not soluble
14 | GFRWASNATFTLNRNKVKRLAGGSTNPVTGELIDMPNMPVGWLGKENVAPRVILTEGGTMTDIYVYNELTKDNNGNIKVDAQTGGLSMHTAETPTKVGNLNANYNLGWTNNFTYKGINLGVVLSARVGGLAYSATQGVLDYYGVSSITANARDNKGVPMNNGKVDTQKYYQTIGTGEGGYGRYYLYSATNVRLQELSLSYTLPKKWLNNVANVTFGLVGRNLWMIYCKAPFDPELSASTSSNYYMNVDYFMQPSMRNIGFNVKVQF | not soluble
15 | GGSEDEDSPLDALDLVWAKCRGYPSYPALIIDPKMPREGMFHHGVPIPVPPLEVLKLGEQMTQEAREHLYLVLFFDNKRTWQWLPRTKLVPLGVNQDLDKEKMLEGRKSNIRKSVQIAYHRALQHRSKVQGE | soluble
16 | GHFAPQQMKEAIEIYKTLFEPSDVLDEPYVIVCLNTIVAENDDEAQYLASSMAQVMVSITRGRMQPVQPPTHDLQNILTPREYAMAMERQKISLIGSENTVQQKIQDFMETYGEVNEIMAISYIYDKDMQLDSYRRFKN | not soluble
17 | GHHHHHHAIAENLYFQSETSETDSTGNTQTCETRQTRSNSWTAWGIHAISTITDGAKQLYTKALGLDELEEKKLEDEEGVTHVEVDEKTKRDLWNQLSTLVGADVINMRLSLPVWLFEPTTALQRMCETLQFHQLLDMAATCEEPVERDALVAAFTVSAFAHTERVYKPFNPVLGETFEWTSRDGTTRVLCEQVSHHPPVSVSYTEGPGWVAQEVFSCNAYFLGNSVEIRNTGSRYVYLTSFDERYEWTLPVSAAQNLFVGGSFIDHYGELILRSSPRGSVTSLTFTKCGWFGRGRYAVNGDIVDADGYRVMELSGEWNRGLVGFRLDKSSGERVDAKSLWYAGEHKPAVKRDKYNFTNFTYELLEVPDNAESIIPPTDSRFRPDRRALEGNNLSLANLEKVRVENIQRERENQRQKTGTTYVPAWFYQDDNNEWHFGGKYWKETRNMSEDQKEQMKLW | not soluble
18 | GHHHHHHAIAENLYFQSQQVKQKHKKSDEYRVFVGNLPFSWLEDAVRSVFHSYGTVVDVEVPRKREQPERNRGFAFVYFSSREEALAATTLSGSRLDGRIIKVEWADDGSEHRKVGHEELTQRPTHPLASSQVYEWGGQQVQKQNDSVVSKETPNFMPSGALYKEQRMTRYGKELKFVEPLDARKPEQPWRMYVFKNGKLLEGEEGVFYIHQKSNYLFGRDRDVVDIPIDHPSASKQHAVLQFRQVMPKNGNKLVIKPYIMDLESTNGTFLNNERIESLRYYELLEKDLLRFGHSSREFILLTGHK | soluble
